# Assay: yeast display, Sf9 membrane polyspecificity reagent, FACS + sequencing; frameworks hold sequencing errors
# Method in brief: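 Sorting gates, low and high (top ~1%), were placed on anti-HA fluorescence to track expression and on streptavidin fluorescence to track reagent binding. A clone's polyreactivity label is taken from the gate it came out of. The reagent was 10% biotinylated, detergent-solubilized Sf9 membrane, applied for 1 hour at 4 °C to galactose-induced yeast display cells.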
row,Sequence,polyreactivity (PSR sort gate)
1,QFQLVESGGGLVQAGGSLRLSCAASGRIFVYNAMGLYRQAPGKEREFVATITSSGGRTYYADSVKGRFTISRDNAKNTVYLQLNSLKPEDTAVYYWAARPQNNGRNPLYRYNYWGQGTQVTVSS,high polyreactivity
2,QVQLVESGGGLVQAGGSLRLSCAASGRTFYKNAMGWYRQAPGKERELVAAISSRGGRTTYADSVKGRFTISRDNAKNTVYLQMNSLKPEDTAVYYCATDWAQVYHGTTKYYYWGQGTQVTVSS,high polyreactivity
3,QVQLVESGGGLVQAGGSLRLSCAASGFTFYYAMGWYRQAPGKERELVAAISSSGARTYYADSVKGRFTISRDNAKYTVYLQMNSLKPEDTAVYYCAARRYYKFYYWGQGTQVTVSS,high polyreactivity
4,QVQLVESGGGLVQAGGSLRLSCAASGSTFDDNAMGWYRQAPGKERELVASINYSTGSTYYADSVKGRFTISRDNAKNTVYLQMNSLKPEDTAVYYCAKDLRRYLSWWYRYPYDYWGQGTQVTVSS,low polyreactivity
5,QVQLVESGGGLVQAGGSHRLSCADSGRTFRTYAMGWYRQAPGKERELVAAITTSGSSTYYADSVKGRFTISRDNAKNTVYLQMNSLKPEDTAVYYCAAARSAIVPGYYSWGQGTQVTVSS,low polyreactivity
6,QVQLVESGGGLVQAGGSLRLSCAASGSIFEGYAMGWYRQAPGKERELVAAISWSSARTYYADSVKGRFTISRDNAKNTVYLQMNSLKPEDTAVYYCNAVARNNRNSRQRIPYDYWGQGTQVTVSS,high polyreactivity
7,QVQLVESAGGGVQAGGSLRLSCPASGIIFVPNTMGWYRQAPGKEREFVASISRRGGNTNYADSVKGRFTISRDNAKNTVYLQMNSLKPEDTAVYYCAKYSSSEGKYDYWGQGTQVTVSS,high polyreactivity
8,QVQLVESGGGLVQAGGSLRLSCAASGSIFIPNAMGWYRQAPGKERELVAAISLSDTTTYYADSVKGRFTISRDNAKNTVYLQMNSLKPEDTAVYYCAADYWFYPTSPVMDYWGQGTQVTVSS,low polyreactivity
9,QVHLVESGGGLVQAGGSLRLSCAASGRTFGRKAMGWYRQAPGKERELVASITKRGGSTYYADSVKGRFTISRDNAKNTVYLQMNSLKPVDTAVYYCAVEAYDYWGQGTQVTVSS,high polyreactivity
10,QVQLVESGGGLVQAGGSLRLSFAASGFIFDKYAMGWYRQAPGKERELVATITSGGSTYYADSVKGRFTISRDNAKNYVYLQMYSLKREDTADYYCAALDYGYRWYRYYYWGQGSQVTVSS,high polyreactivity
11,QVQIVESGGGLVQPGGILRLSCAASGSTSQPYDMGWYRQAPGKEWELVASITKGRITYYADSVKGRFTISRDNAKNTVYLQMNSRKPEDTAVYYCNADNVFEGYDGRSARASYRYYSWGQGTQVTVSS,low polyreactivity
12,QVQLVESRGGLVQAGGSLRLSCATSGIFVVYALGWYRQAPGKVRELVAAISSGVSTSYADSVKGRFTISRENAKNTVYLQMNSLKPEDTAVYYCNTLWGHKFIVPFRTREFYYWGQGTQVTVSS,low polyreactivity
13,QVQLVESGGGLVQAGGSLRLSCAAAGRIFGINALGWYRQAPGKERELVAAISWRSGSTYYADSVKGRFTISRDNAKNTVYLQMNSLKPEATAVYYCAARYFVRNYYQNDYWGQGTQVTVSS,low polyreactivity
14,QVQLVESGGGLVQAGGSLRLSCAASGFIIARNTMGWYRQAPAKERELVAAISSSGGSTYYADSVKGRFTISRDNAKNTFYLQMNCLKPEDTAVYYCNKGYTGLYGYDYWGQGTHVTVSS,high polyreactivity
15,QVQLVESGGGLVQAGGSLRLSCAASGSTFTNYAMGWYRQAPRKERELVAAITSVGSTYYADSVKGRFTISRDNAKNTVYLQMNSLKQEDTAVYYCNVVYRDQYNYWGQGTQVTVSS,low polyreactivity
16,QVQLVESGGGLVQAGGSLRLRGAASGSTFGPNAMGWYRPAPGKEREFVASISWRGGRTYYADSVKGRFTISRDNAKNTVYLQMNSLNPEDTAVYYCAAVSYPAVYGFDYWGQGTQVTVSS,high polyreactivity
17,QVQLQESGGGLVQAGGTITLGYEMGWYRQAPGKEREFVAGIDTGAITYYADSVKGRFTNSRDNAKNTVYLQMNSLKPEDTAVYYCAAIQTHTYAHSYWGQGTQVTVSS,high polyreactivity
18,QVQLVESGGGLVQAGGSLRLSCAASGSTFTSYAIGWYRQAPGKERELVAAIRYSGGRTYYADSVKGRFTISRDNAKNTVYFQMNSLKPEDTAVYYCAARSKVYKVGYNYWGQGTQVTVSS,high polyreactivity
19,QVQLVESGGGLVQAGGSLRLTCAASGSIFGNAMGWYREAPGKEREIVAAISSSGSSTYYADSVKGRFTMSRDTAKNTVYLQMNSLKPADTAVYYCNKGSRRYHGYDYWGQGTQVTVSS,high polyreactivity
20,QVQLEESGGGLVQAGGSLRLSCAASGRTFYVNAMGWYRQATGKERELVAAISWSGGSTYYADSVKGRFTISRDNAKNTVYLQINSLKPEDTAVYYCAAEDIEDYEYWGQGTQVTVSS,low polyreactivity
21,QVQLVESGGGLDQAGGSLRLTCAASGSIFAKYAMGWYRQAPGKERELVAAITSSGDSTNYADSVKGRFTISRDNAKNTVYVQMNSLKPEDTAVYYCAADHHYGYVYYAFWGYDYWGQGTQVTVSS,low polyreactivity
22,QVQLVESGGGLVQAGGSLRLSCAASGRTFYQYDMGWYRQEPGKERAFVADIDWSGGSTYYADSVKGRFTISRDNAKNTVYLQMNSLKPEDTAVYYCNADAYPHPVVGYDYWGQGTQVTVSS,low polyreactivity

row,Sequence,polyreactivity (PSR sort gate)
1,QDQLVESGGGLVQAGGSLRLSCAASCFTSLIYAMGWYRQAPGKERELVASITWGGGSTYADSVKGRFTISRDNAKNTVSLLMNSLKPEDTAVYYCASLYWWYPFNYWGQGTQVTVSS,low polyreactivity
2,QVHLVESGGGLVQAGGSLRLSCAASGFTFDFYAMGWYRQAPGKERELVAAISKNDGTTYYADSVKGRFTISRDNAKNTVYLQLNSLKPEDTAVYYCAAESGYPVYTYVSSGDYWGQGTQVTVSS,low polyreactivity
3,QVQLVESGGGLVQAGGSLRLSCAASGIIFGYYAMGWYRQAPGKVRELVAAISWSGGSTYYADSVKGRFTFSRDNAKNTVYLQMNSLKPEDTAVYYCNAVYVSYTYQQTRSGGYDYWGQGTQVTVSS,high polyreactivity
4,QVQLVESGGGVVQAGGSLRLSCAASGSTFYANAMGWSRQAPGKERELVAAISSGGSTYYADSVKGRFTISRDNAKNTVYLQMNSLKPDDTAVYYCAKPFYSYRYGFGYWGQGTQVTVSS,low polyreactivity
5,QVQLVESGGGLVQAGGSLRLSCAASGSTFYKYAMGWYRQAPGKERELVAVITDGGSTTYADSVKGRFTISRDNAKNTVYLQMNSLKPEDTAVYYCAADYYLRKTRFESWGQGTQVTVSS,low polyreactivity
6,QVQLVESGAGIVQAGGSLRLSCAASGRTFLDYTMGWYRQAPGKERELVAAIRTSAGSTYYADSVKGRFTISRDNAKKTVYLQLNSLKPEDTAVYYCAAVYYVHYYYSYDYWGQGTQVTVSS,low polyreactivity
7,QDQHVESVGGLVQAGGSLLLSCAASGFTLRGYALGWDRQAPGKERELVADISGGGSTDYADSVKGRFTISRDNAKNTVYLQMNSLKPLDTAVYYCAAYGYLWWEMDYWGQGTQVTLSS,high polyreactivity
8,QVQLVESGGGLVQAGGSLRLSCAASGRTFTGNAMGWYRQAPGKERELVAAISFSGASTYYADSVKGRFTISRDNAKNTVYLQMNSLKPEDTAVYYCNADSRYRSFDYWGQGTQVTVSS,high polyreactivity
9,QVQLVESGGGLVQAGGSLRLSCAASGFTLAYYAMGWSRQAPGKERELVAAISWSGDTTYYADSVKGRFTISRDNAKNTVYLQMNSLKPEDTAVYYCAADYYLWGQGTQVTVSS,high polyreactivity
10,QVQLVESGGGLVQAGGSLRLSCAASVSTFDYYTMGRYRQAPGKERELVAAISSAGSTNYADSVKGRFTISRDNAKNTVYLQMNSLKPEDTAVYYCAAQVHPIRYDYWGQGTQVTVSS,low polyreactivity
11,QVQLVESGGGLVQAGGSLRLSCAASGSIFEGYVMGWYRQAPGKERELVATISFSGGSTYYADSVKGRFTISRDNAKNTVYLQMNSLKPEDTAVYYCNALVYHTKGDYGYWGQGTQVTVSS,low polyreactivity
12,QVQLVESGGGLLQAGGSLRLSCAASGRNFRLYPMGWYRQAPGTERDFLAAITFSGGRTYYADSVKGRFTISRDNAKNTVYLQMKSLKPEDTAVYYCAARGQTGYYSGVGYWGLGTQVTVSS,high polyreactivity
13,QVQLVESGGGLVQAGGSLRLSCAASGFIFGYYAMAWYRQAPGKERELVAAITSGTGTNYADSVKGRFTISRDNAKNTVYLQMNSLKPEDTAVYYCAAYYTWLSEFGYWGQGTQVTVSS,low polyreactivity
14,QVQLVESGGGLVQAGGSLRLSCAGSGRIFDLYTMGWYRQAPGKERELVAAIRWSDGSTYYADSVKGRFTISRDNAKNTVYLQINSLKPEDTAVYYCAADTRTSYYNDDYDYWGQGTQVTVSS,low polyreactivity
15,QVQLVESGGGLVQAGGSLRLSCAASGLTFKWYAMGWYRQAPGKERELVAASSRDGSTYYADSVKGRFTLSRDNAKNTVYLQMTSLKPEDTAVDYCAADIWPSSLLADEYDYWGQGTQVTVSS,high polyreactivity
16,QVQLVESGGGLVQAGGSLRLSCAASGIIFTGNAMGWYIQAPGKERELVAAITSGDTTNYADSVKGRFTISRDNAKNTVYLQMNSLKPEDSAVYYCAKELQVRQAGDYWGQGTQVTVSS,low polyreactivity
17,QVQLVESGGGLVQAGGSLRLSCAASGRIFATNAMGWYRQAPGKERELVAGIRRSGARTYYADSVKGRFTISRDNAKNTVYLQMYSLKPEDTAVYYCNASLFIEIYSFQYDDHFAEYGYWGQGTQVTVSS,high polyreactivity
18,QVQLVESGGGLVQAGGSLRLSCADSGRTSRVYAMGWYRQEPAKERELVAAITWRGGNTYYADSVKGRFTISRDNAKNTVYLQMNSLKPEDTAVYYCAADPLSYGSWHGDSWGQGTQVTLSS,high polyreactivity
19,QVQLEESGGGLVLAGGSLRLSCAASGSTFYNYAKGCYREAPGKERELVAAITFTGGSTYYADSVKGRFTISRDNAKNTVYLQMNSLKPEDTAVYYCNRLGPLGDQQQYDYWGQGTQVTVSS,low polyreactivity
20,QVHLVESGGGLVQAGGSLRLSCAASGITFSPYAMGWSRQAPGKERELVAAISSGSSTKYADSVKGRFTISRDNAKNTVYLQMNSLKPEDTAVYYCAARWFDGYAAYGYWGQGTEVTVSS,high polyreactivity
21,QVQLVESGGGLVQAGGSLRLSCAASGSIFGRNAKGWYRQAPRKERELVAAINSGGSTNYADSVKGRFTISRDNAKNTVYLQMNSLKPEDTAVYYCAARTYSSGRYYGYVAFYYWGQGTQVTVSS,high polyreactivity

# — the nanobody polyreactivity screen of Harvey et al. (2022)
